# Test results from paper PMC2895659.
# Assays:
# [1] = molecular target: E1/E2 glycoprotein complex of Jc1/mCD81 (Jc1 carrying L216F, V388G and M405T) on HCV particles (hepatitis C virus genotype 2a (J6CF)) (UniProt P26660)
# [2] = molecular target: E1/E2 glycoprotein complex of Jc1/G451R (Jc1 with a single G451R mutation within E2) on HCV particles (hepatitis C virus genotype 2a (J6CF)) (UniProt P26660)
substance,measurement,setting,value
recombinant fusion protein between GST and the human CD81 large extracellular loop (LEL) (domain or fragment),reduction of luciferase reporter virus infection of Lunet N hCD81 cells after preincubation with 10 µg/ml hCD81 LEL,[1],> 10 fold
same,reduction of luciferase reporter virus infection of Lunet N hCD81 cells after preincubation with 10 µg/ml hCD81 LEL,[2],> 10 fold
